These results are taken from patent US20220213461A1.

The target of data set [1] is butelase-1 (active form extracted from Clitoria ternatea plant material) (Clitoria ternatea). Put plainly: affinity binding of glycosylated enzyme to ConA agarose beads; unbound protein measured by A280.
Data set [2] has the same target. In words: affinity binding of glycosylated enzyme to ConA agarose beads, 4 C 3 h; unbound protein in flow-through measured by A280.
For data set [3], the target named is biotinylated butelase-1 (Clitoria ternatea). Put plainly: affinity binding of biotinylated enzyme to NeutrAvidin agarose beads, pH 6.5, 4 C 3 h; unbound protein measured by A280.
The target in data set [4] is biotinylated VyPAL2 (Viola yedoensis). Described as above.
Data set [5] concerns the target T1, GN14-SLAN (GISTKSIPPISYRNSLAN).
T1 chain: GISTKSIPPISYRNSLAN

“Concanavalin A (ConA) on agarose beads (from UniProt P02866 30-281)” returned a percent of enzyme remaining in the solution (unbound) in data set [1] of 61%. This molecule also yielded a Yield (%) (observed / expected maximal concentration on beads) in data set [2] of 39%. For “NeutrAvidin (deglycosylated avidin) on agarose beads (from UniProt P02701 25-152)”, the Yield (%) (observed / expected maximal concentration on beads) in data set [3] came out at 49%; in data set [4], 45%.

B1: butelase-1 (active form extracted from Clitoria ternatea plant material) (protein)
chain: VEGTRWAVLVAGSKGYVNYRHQADVCHAYQILKKGGLKDENIIVFMYDDIAYNESNPHPGVIINHPYGSDVYKGVPKDYVGEDINPPNFYAVLLANKSALTGTGSGKVLDSGPNDHVFIYYTDHGGAGVLGMPSKPYIAASDLNDVLKKKHASGTYKSIVFYVESCESGSMFDGLLPEDHNIYVMGASDTGESSWVTYCPLQHPSPPPEYDVCVGDLFSVAWLEDCDVHNLQTETFQQQYEVVKNKTIVALIEDGTHVVQYGDVGLSKQTLFVYMGTDPAN
Regarding B1, in data set [5], the “catalytic efficiency (kcat/KM) of cyclization, HPLC-based kinetics, pH 6.5, 37 C” value is 971,936 M^-1s^-1.

B2: VyPAL2 (recombinant, insect-cell expressed, acid-activated active form) (protein)
chain: STNDDDSIGTRWAVLIAGSKGYHNYRHQADVCHMYQILRKGGVKDENIIVFMYDDIAYNESNPFPGIIINKPGGENVYKGVPKDYTGEDINNVNFLAAILGNKSAIIGGSGKVLDTSPNDHIFIYYADHGAPGKIGMPSKPYLYADDLVDTLKQKAATGTYKSMVFYVEACNAGSMFEGLLPEGTNIYAMAASNSTEGSWITYCPGTPDFPPEFDVCLGDLWSITFLEDCDAHNLRTETVHQQFELVKKKIAYASTVSQYGDIPISKDSLSVYMGTDPANDNRTFVDEN
Take B2: the “catalytic efficiency (kcat/KM) of cyclization, HPLC-based kinetics, pH 6.5, 37 C” value in data set [5] is reported as 274,325 M^-1s^-1.
